# From patent US20240197834A1 (HANMI PHARM, published 2024)
# Square brackets hold non-standard residues; d marks the D form. Ends that are not written are not given here. Aib = CC(C)(N)C(=O)O
# Target: glucagon receptor
# Assay: cell-based or functional assay
row,Binder,"In vitro activity (Relative Activity to SEQ ID NO: 1, %) [%]"
1,Y[Aib]QGTFTSDYSKYLDCVRAQDFVQWLMRT [glucagon derivative of SEQ ID NO: 17],23.2
2,Y[Aib]QGTFTSDYSCYLDEKRAKEFVQWLMNT [glucagon derivative of SEQ ID NO: 45],5.2
3,HSQGTFTSDYSKYLDSCEADDFVQWLMNT [glucagon derivative of SEQ ID NO: 6],< 0.1
4,HSQGTFTSDYSKYLDCERAQDFVQWLMNT [glucagon derivative of SEQ ID NO: 3],6.1
5,Y[Aib]QGTFTSDYSKYLDCRRAQVFVQWLMRT [glucagon derivative of SEQ ID NO: 16],4.2
6,Y[Aib]QGTFCSDYSKYLDSRRAQDFVQWLMNT [glucagon derivative of SEQ ID NO: 42],37.9
7,Y[Aib]QGTFTSDYSKYLDSRRACDFRLWLMNT [glucagon derivative of SEQ ID NO: 18],< 0.1
8,HSQGTFTSDYSKYLDSCDAQDFVQWLMNT [glucagon derivative of SEQ ID NO: 4],< 0.1
9,HSQGTFTSDYSKYLDSCEAQDFVQWLMNT [glucagon derivative of SEQ ID NO: 5],0.3
10,Y[Aib]QGTFTSDCSKYLDSRRAQDFVQWLMNT [glucagon derivative of SEQ ID NO: 43],1.6
11,Y[Aib]QGTFTSDYSKYLDSCDADDFVVWLINT [glucagon derivative of SEQ ID NO: 10],< 0.1

# The next lines start with the values.
row,"In vitro activity (Relative Activity to SEQ ID NO: 1, %) [%]",Binder
1,5.2,Y[Aib]QGTFTSDYSCYLDSRRAQDFVQWLMNT [glucagon derivative of SEQ ID NO: 13]
2,1.1,Y[Aib]QGTFTSDYSKYLCEKRAQDFVVWLMNT [glucagon derivative of SEQ ID NO: 15]
3,108,YXQGTFTSDYSKYLDSRRAQDFVQWLMNT (aminoisobutyric acid (Aib) at position 2 (printed X)) [glucagon derivative of SEQ ID NO: 33]
4,75.4,YXQGTFTSDYSKYLDSRRAQDFVQWLMNTC (aminoisobutyric acid (Aib) at position 2 (printed X)) [glucagon derivative of SEQ ID NO: 44]
5,4.6,Y[Aib]QGTFTSDYSKYLDEKCAKEFVQWLMNT [glucagon derivative of SEQ ID NO: 11]
6,0.6,HSQGTFTSDYSKYLDCDRAQDFVQWLMNT [glucagon derivative of SEQ ID NO: 2]
7,18.1,Y[Aib]QGTFTSDYSKYLDCKRAKEFVQWLMNT [glucagon derivative of SEQ ID NO: 14]
8,< 0.1,YSQGTFTSDYSKYLDSCEADDFVQWLMNT [glucagon derivative of SEQ ID NO: 7]
